Data reported in patent US20210388087A1 (Chugai, published 2021).
Residue numbers refer to the chain shown, from its start. In names and notes the source's numbering stands. Blank lines part the entries; values can stand above or below the binder they belong to.

Molecular target: T1, CD3 epsilon homodimer protein (UniProt P07766 23-126)
T1 construct: immobilized on Sensor chip CM4 by amine coupling; also called CD3 (CD3 epsilon)
Experiment: SPR (Biacore T200), CD3 epsilon homodimer on CM4 chip, one-arm antibody as analyte, 25 C;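 also: homodimer attached to the sensor surface via amine coupling, HBS-EP+ used as running buffer during binding runs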

T1 sequence (P07766 23-126): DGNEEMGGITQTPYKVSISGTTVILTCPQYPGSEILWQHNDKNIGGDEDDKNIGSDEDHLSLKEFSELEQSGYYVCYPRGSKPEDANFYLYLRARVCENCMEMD

ratio of amounts bound (altered form / CE115HA000): 0.84
B1: CE115HA000 A99T one-arm antibody (antibody, human IgG1, kappa, L234A L235A, N297A, name in Kabat numbering)
heavy: QVQLVESGGGVVQPGRSLRLSCAASGFTFSNAWMHWVRQAPGKGLEWVAQIKAKSNNYATYYAESVKGRFTISRDDSKNSLYLQMNSLKTEDTAVYYCRYVHYGTYYGVDAWGQGTTVTVSSASTKGPSVFPLAPSSKSTSGGTAALGCLVKDYFPEPVTVSWNSGALTSGVHTFPAVLQSSGLYSLSSVVTVPSSSLGTQTYICNVNHKPSNTKVDKKVEPKSCDKTHTCPPCPAPEAAGGPSVFLFPPKPKDTLMISRTPEVTCVVVDVSHEDPEVKFNWYVDGVEVHNAKTKPREEQYASTYRVVSVLTVLHQDWLNGKEYKCKVSNKALPAPIEKTISKAKGQPREPQVYTLPPSRCELTKNQVSLSCAVKGFYPSDIAVEWESNGQPENNYKTTPPVLDSDGSFFLVSKLTVDKSRWQQGNVFSCSVMHEALHNHYTQKSLSLSPDYKDDDDK
chain: EPKSSDKTHTCPPCPAPELLGGPSVFLFPPKPKDTLMISRTPEVTCVVVDVSHEDPEVKFNWYVDGVEVHNAKTKPREEQYNSTYRVVSVLTVLHQDWLNGKEYKCKVSNKALPAPIEKTISKAKGQPREPQVCTLPPSRDELTKNQVSLWCLVKGFYPSDIAVEWESNGQPENNYKTTPPVLDSDGSFFLYSKLTVDKSRWQQGNVFSCSVMHEALHNRYTQKSLSLSP
light: DIVMTQSPLSLPVTPGEPASISCRSSQSLVHSNRNTYLHWYQQKPGQAPRLLIYKVSNRFSGVPDRFSGSGSGTDFTLKISRVEAEDVGVYYCGQGTQVPYTFGQGTKLEIKRTVAAPSVFIFPPSDEQLKSGTASVVCLLNNFYPREAKVQWKVDNALQSGNSQESVTEQDSKDSTYSLSSTLTLSKADYEKHKVYACEVTHQGLSSPVTKSFNRGEC

ratio of amounts bound (altered form / CE115HA000): 1.21
B2: CE115HA000 D101H one-arm antibody (antibody, human IgG1, kappa, L234A L235A, N297A, name in Kabat numbering)
heavy: B1 heavy with T105A, D110H
chain: B1 chain
light: B1 light

ratio of amounts bound (altered form / CE115HA000): 2.35
B3: CE115HA000 D101Q one-arm antibody (antibody, human IgG1, kappa, L234A L235A, N297A, name in Kabat numbering)
heavy: B1 heavy with T105A, D110Q
chain: B1 chain
light: B1 light

ratio of amounts bound (altered form / CE115HA000): 2.02
B4: CE115HA000 D101N one-arm antibody (antibody, human IgG1, kappa, L234A L235A, N297A, name in Kabat numbering)
heavy: B1 heavy with T105A, D110N
chain: B1 chain
light: B1 light

ratio of amounts bound (altered form / CE115HA000): 0.79
B5: CE115HA000 D101T one-arm antibody (antibody, human IgG1, kappa, L234A L235A, N297A, name in Kabat numbering)
heavy: B1 heavy with T105A, D110T
chain: B1 chain
light: B1 light

ratio of amounts bound (altered form / CE115HA000): 0.63
B6: CE115HA000 D101K one-arm antibody (antibody, human IgG1, kappa, L234A L235A, N297A, name in Kabat numbering)
heavy: B1 heavy with T105A, D110K
chain: B1 chain
light: B1 light

ratio of amounts bound (altered form / CE115HA000): 1.16
B7: CE115HA000 D101S one-arm antibody (antibody, human IgG1, kappa, L234A L235A, N297A, name in Kabat numbering)
heavy: B1 heavy with T105A, D110S
chain: B1 chain
light: B1 light

ratio of amounts bound (altered form / CE115HA000): 1.26
B8: CE115HA000 D101A one-arm antibody (antibody, human IgG1, kappa, L234A L235A, N297A, name in Kabat numbering)
heavy: B1 heavy with T105A, D110A
chain: B1 chain
light: B1 light

ratio of amounts bound (altered form / CE115HA000): 0.73
B9: CE115HA000 D73E one-arm antibody (antibody, human IgG1, kappa, L234A L235A, N297A, name in Kabat numbering)
heavy: B1 heavy with D76E, T105A
chain: B1 chain
light: B1 light

ratio of amounts bound (altered form / CE115HA000): 0.63
B10: CE115HA000 D73T one-arm antibody (antibody, human IgG1, kappa, L234A L235A, N297A, name in Kabat numbering)
heavy: B1 heavy with D76T, T105A
chain: B1 chain
light: B1 light

ratio of amounts bound (altered form / CE115HA000): 1.43
B11: CE115HA000 D72V one-arm antibody (antibody, human IgG1, kappa, L234A L235A, N297A, name in Kabat numbering)
heavy: B1 heavy with D75V, T105A
chain: B1 chain
light: B1 light

ratio of amounts bound (altered form / CE115HA000): 1.33
B12: CE115HA000 D101V one-arm antibody (antibody, human IgG1, kappa, L234A L235A, N297A, name in Kabat numbering)
heavy: B1 heavy with T105A, D110V
chain: B1 chain
light: B1 light

ratio of amounts bound (altered form / CE115HA000): 0.75
B13: CE115HA000 D101F one-arm antibody (antibody, human IgG1, kappa, L234A L235A, N297A, name in Kabat numbering)
heavy: B1 heavy with T105A, D110F
chain: B1 chain
light: B1 light

ratio of amounts bound (altered form / CE115HA000): 1.2
B14: CE115HA000 D101M one-arm antibody (antibody, human IgG1, kappa, L234A L235A, N297A, name in Kabat numbering)
heavy: B1 heavy with T105A, D110M
chain: B1 chain
light: B1 light

ratio of amounts bound (altered form / CE115HA000): 1.41
B15: CE115HA000 D72A one-arm antibody (antibody, human IgG1, kappa, L234A L235A, N297A, name in Kabat numbering)
heavy: B1 heavy with D75A, T105A
chain: B1 chain
light: B1 light

ratio of amounts bound (altered form / CE115HA000): 0.24
B16: CE115HA000 D101R one-arm antibody (antibody, human IgG1, kappa, L234A L235A, N297A, name in Kabat numbering)
heavy: B1 heavy with T105A, D110R
chain: B1 chain
light: B1 light

ratio of amounts bound (altered form / CE115HA000): 1.38
B17: CE115HA000 D101G one-arm antibody (antibody, human IgG1, kappa, L234A L235A, N297A, name in Kabat numbering)
heavy: B1 heavy with T105A, D110G
chain: B1 chain
light: B1 light

ratio of amounts bound (altered form / CE115HA000): 1.07
B18: CE115HA000 D73G one-arm antibody (antibody, human IgG1, kappa, L234A L235A, N297A, name in Kabat numbering)
heavy: B1 heavy with D76G, T105A
chain: B1 chain
light: B1 light

ratio of amounts bound (altered form / CE115HA000): 1.48
B19: CE115HA000 A102I one-arm antibody (antibody, human IgG1, kappa, L234A L235A, N297A, name in Kabat numbering)
heavy: B1 heavy with T105A, A111I
chain: B1 chain
light: B1 light

ratio of amounts bound (altered form / CE115HA000): 0.94
B20: CE115HA000 D73N one-arm antibody (antibody, human IgG1, kappa, L234A L235A, N297A, name in Kabat numbering)
heavy: B1 heavy with D76N, T105A
chain: B1 chain
light: B1 light

ratio of amounts bound (altered form / CE115HA000): 1.04
B21: CE115HA000 D73R one-arm antibody (antibody, human IgG1, kappa, L234A L235A, N297A, name in Kabat numbering)
heavy: B1 heavy with D76R, T105A
chain: B1 chain
light: B1 light

ratio of amounts bound (altered form / CE115HA000): 0.49
B22: CE115HA000 D101Y one-arm antibody (antibody, human IgG1, kappa, L234A L235A, N297A, name in Kabat numbering)
heavy: B1 heavy with T105A, D110Y
chain: B1 chain
light: B1 light

ratio of amounts bound (altered form / CE115HA000): 0.2
B23: CE115HA000 D101P one-arm antibody (antibody, human IgG1, kappa, L234A L235A, N297A, name in Kabat numbering)
heavy: B1 heavy with T105A, D110P
chain: B1 chain
light: B1 light

ratio of amounts bound (altered form / CE115HA000): 0.83
B24: CE115HA000 D73A one-arm antibody (antibody, human IgG1, kappa, L234A L235A, N297A, name in Kabat numbering)
heavy: B1 heavy with D76A, T105A
chain: B1 chain
light: B1 light

ratio of amounts bound (altered form / CE115HA000): 1.05
B25: CE115HA000 D72E one-arm antibody (antibody, human IgG1, kappa, L234A L235A, N297A, name in Kabat numbering)
heavy: B1 heavy with D75E, T105A
chain: B1 chain
light: B1 light

ratio of amounts bound (altered form / CE115HA000): 0.62
B26: CE115HA000 D101L one-arm antibody (antibody, human IgG1, kappa, L234A L235A, N297A, name in Kabat numbering)
heavy: B1 heavy with T105A, D110L
chain: B1 chain
light: B1 light

ratio of amounts bound (altered form / CE115HA000): 1.43
B27: CE115HA000 A102V one-arm antibody (antibody, human IgG1, kappa, L234A L235A, N297A, name in Kabat numbering)
heavy: B1 heavy with T105A, A111V
chain: B1 chain
light: B1 light

ratio of amounts bound (altered form / CE115HA000): 1.59
B28: CE115HA000 A99Y one-arm antibody (antibody, human IgG1, kappa, L234A L235A, N297A, name in Kabat numbering)
heavy: B1 heavy with T105Y
chain: B1 chain
light: B1 light

ratio of amounts bound (altered form / CE115HA000): 1.18
B29: CE115HA000 D101I one-arm antibody (antibody, human IgG1, kappa, L234A L235A, N297A, name in Kabat numbering)
heavy: B1 heavy with T105A, D110I
chain: B1 chain
light: B1 light

ratio of amounts bound (altered form / CE115HA000): 0.14
B30: CE115HA000 A102P one-arm antibody (antibody, human IgG1, kappa, L234A L235A, N297A, name in Kabat numbering)
heavy: B1 heavy with T105A, A111P
chain: B1 chain
light: B1 light

ratio of amounts bound (altered form / CE115HA000): 0.87
B31: CE115HA000 D73K one-arm antibody (antibody, human IgG1, kappa, L234A L235A, N297A, name in Kabat numbering)
heavy: B1 heavy with D76K, T105A
chain: B1 chain
light: B1 light

ratio of amounts bound (altered form / CE115HA000): 0.91
B32: CE115HA000 A102Y one-arm antibody (antibody, human IgG1, kappa, L234A L235A, N297A, name in Kabat numbering)
heavy: B1 heavy with T105A, A111Y
chain: B1 chain
light: B1 light

ratio of amounts bound (altered form / CE115HA000): 1.09
B33: CE115HA000 E61A one-arm antibody (antibody, human IgG1, kappa, L234A L235A, N297A, name in Kabat numbering)
heavy: B1 heavy with E64A, T105A
chain: B1 chain
light: B1 light
